Reference: patent US20190083612A1 (RINAT NEUROSCIENCE, published 2019)

Target: T1, human PD-1 (hPD-1) monomer (human, UniProt Q15116 25-167)
T1 construct: also called hu-PD-1; not shown: His tag (His-tagged monomer)
Experiment: SPR, human PD-1, 25 C

T1 sequence (Q15116 25-167 limits assumed): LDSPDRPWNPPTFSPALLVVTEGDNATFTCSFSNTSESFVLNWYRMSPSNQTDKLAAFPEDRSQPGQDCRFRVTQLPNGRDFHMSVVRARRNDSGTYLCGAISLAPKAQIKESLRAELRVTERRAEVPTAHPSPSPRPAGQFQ

Kd [nM]	Binder
2.22	mAb2 (antibody, V domains shown, Variable regions only) VH: QVQLVQSGAEVKKPGASVKVSCKASGYTFTSYWINWVRQAPGQGLEWMGNIYPGSSLTNYNEKFKNRVTMTRDTSTSTVYMELSSLRSEDTAVYYCARLLTGTFAYWGQGTLVTVSS VL: DIVMTQSPDSLAVSLGERATINCKSSQSLWDSGNQKNFLTWYQQKPGQPPKLLIYWTSYRESGVPDRFSGSGSGTDFTLTISSLQAEDVAVYYCQNDYFYPLTFGGGTKVEIK
64.2	mAb1 (antibody, V domains shown, Variable regions only) VH: QVQLVQSGAEVKKPGASVKVSCKASGYTFTSYWINWVRQAPGQGLEWMGNIYPGSSLTNYNEKFKNRVTMTRDTSTSTVYMELSSLRSEDTAVYYCARLLTGTFAYWGQGTLVTVSS VL: DIVMTQSPDSLAVSLGERATINCKSSQSLWDSGNQKNFLTWYQQKPGQPPKLLIYWTSTRESGVPDRFSGSGSGTDFTLTISSLQAEDVAVYYCQNDYFYPLTFGGGTKVEIK
17.4	mAb8 (antibody, V domains shown, Variable regions only) VH: QVQLVQSGAEVKKPGASVKVSCKASGYTFTSYWINWVRQAPGQGLEWMGNIYPGSSLTNYNEKFKNRVTMTRDTSTSTVYMELSSLRSEDTAVYYCARLSTGTFAYWGQGTLVTVSS VL: DIVMTQSPDSLAVSLGERATINCKSSQSLWDSTNQKNFLTWYQQKPGQPPKLLIYWTSTRESGVPDRFSGSGSGTDFTLTISSLQAEDVAVYYCQNDYFYPLTFGGGTKVEIK
1.16	mAb6 (antibody, V domains shown, Variable regions only) VH: QVQLVQSGAEVKKPGASVKVSCKASGYTFTSYWINWVRQAPGQGLEWMGNIYPGSSLTNYNEKFKNRVTMTRDTSTSTVYMELSSLRSEDTAVYYCARLSTGTFAYWGQGTLVTVSS VL: DIVMTQSPDSLAVSLGERATINCKSSQSLWDSGNQKNFLTWYQQKPGQPPKLLIYWTSYRESGVPDRFSGSGSGTDFTLTISSLQAEDVAVYYCQNDYFYPLTFGGGTKVEIK
13.5	mAb9 (antibody, V domains shown, Variable regions only) VH: QVQLVQSGAEVKKPGASVKVSCKASGYTFTSYWINWVRQAPGQGLEWMGNIYPGSSITNYNEKFKNRVTMTRDTSTSTVYMELSSLRSEDTAVYYCARLTTGTFAYWGQGTLVTVSS VL: DIVMTQSPDSLAVSLGERATINCKSSQSLWDSGNQKNFLTWYQQKPGQPPKLLIYWTSTRESGVPDRFSGSGSGTDFTLTISSLQAEDVAVYYCQNDYFYPLTFGGGTKVEIK
0.98	mAb10 (antibody, V domains shown, Variable regions only) VH: QVQLVQSGAEVKKPGASVKVSCKASGYTFTSYWINWVRQAPGQGLEWMGNIYPGSSITNYNEKFKNRVTMTRDTSTSTVYMELSSLRSEDTAVYYCARLTTGTFAYWGQGTLVTVSS VL: DIVMTQSPDSLAVSLGERATINCKSSQSLWDSGNQKNFLTWYQQKPGQPPKLLIYWTSYRESGVPDRFSGSGSGTDFTLTISSLQAEDVAVYYCQNDYFYPLTFGGGTKVEIK
1.43	mAb3 (antibody, V domains shown, Variable regions only) VH: QVQLVQSGAEVKKPGASVKVSCKASGYTFTSYWINWVRQAPGQGLEWMGNIYPGSSLTNYNEKFKNRVTMTRDTSTSTVYMELSSLRSEDTAVYYCARLLTGTFAYWGQGTLVTVSS VL: DIVMTQSPDSLAVSLGERATINCKSSQSLWDSGNQKNFLTWYQQKPGQPPKLLIYWTSYRESGVPDRFSGSGSGTDFTLTISSLQAEDVAVYYCQNDYFYPHTFGGGTKVEIK
12.8	mAb5 (antibody, V domains shown, Variable regions only) VH: QVQLVQSGAEVKKPGASVKVSCKASGYTFTSYWINWVRQAPGQGLEWMGNIYPGSSLTNYNEKFKNRVTMTRDTSTSTVYMELSSLRSEDTAVYYCARLSTGTFAYWGQGTLVTVSS VL: DIVMTQSPDSLAVSLGERATINCKSSQSLWDSGNQKNFLTWYQQKPGQPPKLLIYWTSTRESGVPDRFSGSGSGTDFTLTISSLQAEDVAVYYCQNDYFYPLTFGGGTKVEIK
